Data taken from US12031137B2, “Compositions comprising SASP modulators and senescence attenuators and uses thereof for modulating cellular senescence” (RSEM, LIMITED PARTNERSHIP, priority 2016, dated 2024).

B1: Trap Y: NRP1 trap a1a2-c, aa about 22-274 and 584-856; SEQ ID NOs 91/92 (protein)
chain: FRNDKCGDTIKIESPGYLTSPGYPHSYHPSEKCEWLIQAPDPYQRIMINFNPHFDLEDRDCKYDYVEVFDGENENGHFRGKFCGKIAPPPVVSSGPFLFIKFVSDYETHGAGFSIRYELFKRGPECSQNYTTPSGVIKSPGFPEKYPNSLECTYIVFAPKMSEIILEFESFDLEPDSNPPGGMFCRYDRLEIWDGFPDVGPHIGRYCGQKTPGRIRSSSGILSMVFYTDSAIAKEGFSANYSVLQSSVSEDFKEVEAPTAGPTTPNGNLVDECDDDQANCHSGTGDDFQLTGGTTVLATEKPTVIDSTIQSEFPTYGFNCEFGWGSHKTFCHWEHDNHVQLKWSVLTSKTGPIQDHTGDGNFIYSQADENQKGKVARLVSPVVYSQNSAHCMTFWYHMSGSHVGTLRVKLRYQKPEEYDQLVWMAIGHQGDHWKEGRVLLHKSLKLYQVIFEGEIGKGNLGGIAVDDISINNHISQEDCAKPADLDKKNPEIKIDETGSTPGYEGEGEGDKNISRKPGNVLKTLDPRSGSKENLYFQG
B2: Trap Q: NRP1 trap a1a2-b1b2, aa about 22-583, Y297A; SEQ ID NOs 79/80 (protein)
chain: FRNDKCGDTIKIESPGYLTSPGYPHSYHPSEKCEWLIQAPDPYQRIMINFNPHFDLEDRDCKYDYVEVFDGENENGHFRGKFCGKIAPPPVVSSGPFLFIKFVSDYETHGAGFSIRYELFKRGPECSQNYTTPSGVIKSPGFPEKYPNSLECTYIVFAPKMSEIILEFESFDLEPDSNPPGGMFCRYDRLEIWDGFPDVGPHIGRYCGQKTPGRIRSSSGILSMVFYTDSAIAKEGFSANYSVLQSSVSEDFKCMEALGMESGEIHSDQITASSQASTNWSAERSRLNYPENGWTPGEDSYREWIQVDLGLLRFVTAVGTQGAISKETKKKYYVKTYKIDVSSNGEDWITIKEGNKPVLFQGNTNPTDVVVAVFPKPLITRFVRIKPATWETGISMRFEVYGCKITDYPCSGMLGMVSGLISDSQITSSNQGDRNWMPENIRLVTSRSGWALPPAPHSYINEWLQIDLGEEKIVRGIIIQGGKHRENKVFMRKFKIGYSNNGSDWKMIMDDSKRKAKSFEGNNNYDTPELRTFPALSTRFIRIYPERATHGGLGLRMELLGCRSGSKENLYFQG
B3: Trap P: NRP1 trap a1a2-b1, aa about 22-424, Y297A; SEQ ID NOs 83/84 (protein)
chain: FRNDKCGDTIKIESPGYLTSPGYPHSYHPSEKCEWLIQAPDPYQRIMINFNPHFDLEDRDCKYDYVEVFDGENENGHFRGKFCGKIAPPPVVSSGPFLFIKFVSDYETHGAGFSIRYELFKRGPECSQNYTTPSGVIKSPGFPEKYPNSLECTYIVFAPKMSEIILEFESFDLEPDSNPPGGMFCRYDRLEIWDGFPDVGPHIGRYCGQKTPGRIRSSSGILSMVFYTDSAIAKEGFSANYSVLQSSVSEDFKCMEALGMESGEIHSDQITASSQASTNWSAERSRLNYPENGWTPGEDSYREWIQVDLGLLRFVTAVGTQGAISKETKKKYYVKTYKIDVSSNGEDWITIKEGNKPVLFQGNTNPTDVVVAVFPKPLITRFVRIKPATWETGISMRFEVYGCRSGSKENLYFQG
B4: Trap X: NRP1 trap a1a2-b1-c, aa about 22-430 and 584-856, Y297A; SEQ ID NOs 89/90 (protein)
chain: FRNDKCGDTIKIESPGYLTSPGYPHSYHPSEKCEWLIQAPDPYQRIMINFNPHFDLEDRDCKYDYVEVFDGENENGHFRGKFCGKIAPPPVVSSGPFLFIKFVSDYETHGAGFSIRYELFKRGPECSQNYTTPSGVIKSPGFPEKYPNSLECTYIVFAPKMSEIILEFESFDLEPDSNPPGGMFCRYDRLEIWDGFPDVGPHIGRYCGQKTPGRIRSSSGILSMVFYTDSAIAKEGFSANYSVLQSSVSEDFKCMEALGMESGEIHSDQITASSQASTNWSAERSRLNYPENGWTPGEDSYREWIQVDLGLLRFVTAVGTQGAISKETKKKYYVKTYKIDVSSNGEDWITIKEGNKPVLFQGNTNPTDVVVAVFPKPLITRFVRIKPATWETGISMRFEVYGCKITDYPEVEAPTAGPTTPNGNLVDECDDDQANCHSGTGDDFQLTGGTTVLATEKPTVIDSTIQSEFPTYGFNCEFGWGSHKTFCHWEHDNHVQLKWSVLTSKTGPIQDHTGDGNFIYSQADENQKGKVARLVSPVVYSQNSAHCMTFWYHMSGSHVGTLRVKLRYQKPEEYDQLVWMAIGHQGDHWKEGRVLLHKSLKLYQVIFEGEIGKGNLGGIAVDDISINNHISQEDCAKPADLDKKNPEIKIDETGSTPGYEGEGEGDKNISRKPGNVLKTLDPRSGSKENLYFQG
B5: Trap AG: NRP1 trap a1a2b2, aa about 22-280, 431-583 and 631-700; SEQ ID NOs 57/58 (protein)
chain: MERGLPLLCAVLALVLAPAGAFRNDKCGDTIKIESPGYLTSPGYPHSYHPSEKCEWLIQAPDPYQRIMINFNPHFDLEDRDCKYDYVEVFDGENENGHFRGKFCGKIAPPPVVSSGPFLFIKFVSDYETHGAGFSIRYELFKRGPECSQNYTTPSGVIKSPGFPEKYPNSLECTYIVFAPKMSEIILEFESFDLEPDSNPPGGMFCRYDRLEIWDGFPDVGPHIGRYCGQKTPGRIRSSSGILSMVFYTDSAIAKEGFSANYSVLQSSVSEDFKKITDYPCSGMLGMVSGLISDSQITSSNQGDRNWMPENIRLVTSRSGWALPPAPHSYINEWLQIDLGEEKIVRGIIIQGGKHRENKVFMRKFKIGYSNNGSDWKMIMDDSKRKAKSFEGNNNYDTPELRTFPALSTRFIRIYPERATHGGLGLRMELLGCRSGSKENLYFQG
B6: Trap R: NRP1 trap a1a2-b1b2-c, aa about 22-856, Y297A; SEQ ID NOs 69/70 (protein)
chain: FRNDKCGDTIKIESPGYLTSPGYPHSYHPSEKCEWLIQAPDPYQRIMINFNPHFDLEDRDCKYDYVEVFDGENENGHFRGKFCGKIAPPPVVSSGPFLFIKFVSDYETHGAGFSIRYELFKRGPECSQNYTTPSGVIKSPGFPEKYPNSLECTYIVFAPKMSEIILEFESFDLEPDSNPPGGMFCRYDRLEIWDGFPDVGPHIGRYCGQKTPGRIRSSSGILSMVFYTDSAIAKEGFSANYSVLQSSVSEDFKCMEALGMESGEIHSDQITASSQASTNWSAERSRLNYPENGWTPGEDSYREWIQVDLGLLRFVTAVGTQGAISKETKKKYYVKTYKIDVSSNGEDWITIKEGNKPVLFQGNTNPTDVVVAVFPKPLITRFVRIKPATWETGISMRFEVYGCKITDYPCSGMLGMVSGLISDSQITSSNQGDRNWMPENIRLVTSRSGWALPPAPHSYINEWLQIDLGEEKIVRGIIIQGGKHRENKVFMRKFKIGYSNNGSDWKMIMDDSKRKAKSFEGNNNYDTPELRTFPALSTRFIRIYPERATHGGLGLRMELLGCEVEAPTAGPTTPNGNLVDECDDDQANCHSGTGDDFQLTGGTTVLATEKPTVIDSTIQSEFPTYGFNCEFGWGSHKTFCHWEHDNHVQLKWSVLTSKTGPIQDHTGDGNFIYSQADENQKGKVARLVSPVVYSQNSAHCMTFWYHMSGSHVGTLRVKLRYQKPEEYDQLVWMAIGHQGDHWKEGRVLLHKSLKLYQVIFEGEIGKGNLGGIAVDDISINNHISQEDCAKPADLDKKNPEIKIDETGSTPGYEGEGEGDKNISRKPGNVLKTLDPRSGSKENLYFQG
B7: Trap AF: NRP1 trap a1a2b2c, aa 1-280 and 431-856 incl. SP; SEQ ID NOs 55/56 (protein)
chain: MERGLPLLCAVLALVLAPAGAFRNDKCGDTIKIESPGYLTSPGYPHSYHPSEKCEWLIQAPDPYQRIMINFNPHFDLEDRDCKYDYVEVFDGENENGHFRGKFCGKIAPPPVVSSGPFLFIKFVSDYETHGAGFSIRYELFKRGPECSQNYTTPSGVIKSPGFPEKYPNSLECTYIVFAPKMSEIILEFESFDLEPDSNPPGGMFCRYDRLEIWDGFPDVGPHIGRYCGQKTPGRIRSSSGILSMVFYTDSAIAKEGFSANYSVLQSSVSEDFKKITDYPCSGMLGMVSGLISDSQITSSNQGDRNWMPENIRLVTSRSGWALPPAPHSYINEWLQIDLGEEKIVRGIIIQGGKHRENKVFMRKFKIGYSNNGSDWKMIMDDSKRKAKSFEGNNNYDTPELRTFPALSTRFIRIYPERATHGGLGLRMELLGCEVEAPTAGPTTPNGNLVDECDDDQANCHSGTGDDFQLTGGTTVLATEKPTVIDSTIQSEFPTYGFNCEFGWGSHKTFCHWEHDNHVQLKWSVLTSKTGPIQDHTGDGNFIYSQADENQKGKVARLVSPVVYSQNSAHCMTFWYHMSGSHVGTLRVKLRYQKPEEYDQLVWMAIGHQGDHWKEGRVLLHKSLKLYQVIFEGEIGKGNLGGIAVDDISINNHISQEDCAKPADLDKKNPEIKIDETGSTPGYEGEGEGDKNISRKPGNVLKTLDPRSGSKENLYFQG

Test system: SEMA3A-FC
Experiment: Sema 3A binding assay on plate-coated purified traps (saturation curves, KD)
Details: for Binding to SEMA3A: Table 2, Yes/No; for Kd / SEMA 3A-FC binding (dissociation constant): traps coated on plate, overnight incubation; for Kd: read-out: SEMA 3A-FC binding (dissociation constant)
Procedure: Sema 3A and AP-VEGF165 binding assays. Saturation curves for the determinations of KD of binding to SEMA 3A or VEGF165 were obtained as follow. Wells of high protein binding 96 well plates (Maxisorp, Nunc) were coated with purified traps diluted in PBS and blocked afterward with binding buffer (PBS containing 2% casein and 0.05% Tween 20). The SEMA3A-FC (R&D systems) or AP-VEGF165 ligands were diluted in binding buffer over an extensive range of concentrations and added to wells. Following an overnight incubation, wells were washed with PBS containing 0.05% tween. Bound SEMA3a-FC was detected using an HRP-linked anti-Human IgG (Biorad) and ECL substrate (Pierce). Alternatively, bound AP-VEGF165 was detected using CPD star substrate (Roche). The Chemiluminescent signal was acquired on a TECAN reader. Dissociation constant (KD) were determined by non-linear curve fitting using the Graph Pad prism software.
The relative affinity of traps of the present invention to SEMA3A and VEGF has been assessed. Traps were prepared as described in Example 8.

Molecule | Binding to SEMA3A | Kd [nM] | SEMA 3A-FC binding (dissociation constant)
Iso-c: Secreted NRP1 isoform-c/Siv; 609 amino acids; a1a2-b1b2-c (in part); SEQ ID NO: 45 | Yes |  | 
Iso-d: Secreted NRP1 isoform S11; 704 amino acids; a1a2-b1b2-c (in part); SEQ ID NO: 46 | Yes |  | 
Trap O: NRP1 trap a1a2-b1b2, aa about 22-583; SEQ ID NOs 77/78 | Yes |  | 
Iso-b: Secreted NRP1 isoform-b/S12; 644 amino acids; a1a2-b1b2-c (in part); SEQ ID NO: 44 | Yes |  | 
B1 | No | > 750 | 
B2 | No |  | No binding
B3 | No |  | No binding
B4 | No |  | No binding
B5 | Yes |  | 
B6 | Yes | 6.15 | 
B7 | No |  | No binding
